According to paper PMC11822394, “CsNAC17 enhances resistance to Colletotrichum gloeosporioides by interacting with CsbHLH62 in Camellia sinensis”:

T1: CsNAC17 (Camellia sinensis, UniProt A0A4S4ETT7 1-357)
T1 chain: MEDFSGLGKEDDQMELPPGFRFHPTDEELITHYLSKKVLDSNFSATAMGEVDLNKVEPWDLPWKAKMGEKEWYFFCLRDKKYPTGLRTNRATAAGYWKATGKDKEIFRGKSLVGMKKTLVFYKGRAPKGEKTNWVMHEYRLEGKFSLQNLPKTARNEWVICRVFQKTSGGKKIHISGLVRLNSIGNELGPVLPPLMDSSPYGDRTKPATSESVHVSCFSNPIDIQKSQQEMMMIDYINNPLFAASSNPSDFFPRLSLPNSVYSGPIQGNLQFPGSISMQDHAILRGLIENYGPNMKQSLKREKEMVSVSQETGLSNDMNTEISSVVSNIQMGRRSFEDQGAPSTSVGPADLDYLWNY

B1: ProCsRPM1-CATGTG probe (dsDNA)
DNA 1: TTTTAGACATGTGTTTCCCA
DNA 2: TGGGAAACACATGTCTAAAA
B2: ProCsRPM1-CACG probe (dsDNA)
DNA 1: CTACGTAGCACGGTCCTATT
DNA 2: AATAGGACCGTGCTACGTAG

Target: T1, CsNAC17
Test: EMSA; LightShift Chemiluminescent EMSA Kit; buffer, salt, pH and temperature not stated
Conditions: protein: recombinant; tags: GST (pGEX-6p-1); chain copies: 0; label: biotin (hot probe); blunt

Binder	binding result
B1	binds
B2	binds
